# Patent US20230235054A1 (BIOATLA, published 2023)
# Positions count from the first letter of the chain named.
# T1: human Nectin-4 on cells (human, UniProt Q96NY8 32-510)
# T1 construct: whole, on cells; also called HEK293 cells expressing human Nectin-4; T47D cells that express human Nectin-4
# T1 sequence (looked up): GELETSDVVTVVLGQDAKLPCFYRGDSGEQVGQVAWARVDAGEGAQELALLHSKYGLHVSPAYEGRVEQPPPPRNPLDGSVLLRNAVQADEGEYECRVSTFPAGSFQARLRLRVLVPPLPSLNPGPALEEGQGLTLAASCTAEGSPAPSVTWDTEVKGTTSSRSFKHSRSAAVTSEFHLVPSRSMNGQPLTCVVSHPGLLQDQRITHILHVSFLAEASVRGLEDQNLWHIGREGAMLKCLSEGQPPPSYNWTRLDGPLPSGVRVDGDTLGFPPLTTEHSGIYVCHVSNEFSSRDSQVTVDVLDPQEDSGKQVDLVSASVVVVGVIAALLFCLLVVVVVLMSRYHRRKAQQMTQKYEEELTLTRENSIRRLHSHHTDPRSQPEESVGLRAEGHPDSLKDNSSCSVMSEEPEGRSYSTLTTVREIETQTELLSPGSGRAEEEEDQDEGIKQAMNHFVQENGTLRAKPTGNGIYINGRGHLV
# T2: huNectin4-His (human, UniProt Q96NY8 32-349)
# T2 construct: Immobilized on the SPR chip; also called humanNectin4; human Nectin4; not shown: His tag
# T2 sequence (looked up): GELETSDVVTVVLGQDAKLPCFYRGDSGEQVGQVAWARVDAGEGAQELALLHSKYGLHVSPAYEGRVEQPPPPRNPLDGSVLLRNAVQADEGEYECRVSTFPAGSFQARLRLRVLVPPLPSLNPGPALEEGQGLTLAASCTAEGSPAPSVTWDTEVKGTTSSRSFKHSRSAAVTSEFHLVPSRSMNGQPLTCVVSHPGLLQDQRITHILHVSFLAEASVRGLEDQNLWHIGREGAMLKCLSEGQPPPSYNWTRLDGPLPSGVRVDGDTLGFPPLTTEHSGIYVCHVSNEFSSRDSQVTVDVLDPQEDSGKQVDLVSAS
# T3: recombinant human Nectin4 antigen (human, UniProt Q96NY8 32-349)
# T3 construct: construct not described
# T3 sequence (looked up): T2 sequence (looked up)
# B1: BAP-143-wildtype (antibody, V domains shown)
# VH: EVQLVESGGGLVQPGGSLRLSCAASGFTFSSYNMNWVRQAPGKGLEWVSYISSSSSTIYYADSVKGRFTISRDNAKNSLSLQMNSLRDEDTAVYYCARAYYYGMDVWGQGTTVTVSS
# VL: DIQMTQSPSSVSASVGDRVTITCRASQGISGWLAWYQQKPGKAPKFLIYAASTLQSGVPSRFSGSGSGTDFTLTISSLQPEDFATYYCQQANSFPPTFGGGTKVEIK
# notes: 150 kDa used in SPR; also called BAP143-00-00; benchmark (BM)
# B2: BAP-143-00-05 (antibody, V domains shown)
# VH: B1 VH with R98E
# VL: B1 VL
# notes: Used as a conjugate with a linker payload (CAB ADC)
# B3: BAP-143-00-06 (antibody, V domains shown)
# VH: B1 VH with M104D
# VL: B1 VL
# notes: as for B2
# B4: BAP-143-00-02 (antibody, V domains shown)
# VH: B1 VH
# VL: B1 VL with F94E
# notes: as for B2
# B5: BAP-143-00-03 (antibody, V domains shown)
# VH: B1 VH
# VL: B1 VL with P96D
# notes: as for B2
# B6: BAP-143-00-04 (antibody, V domains shown)
# VH: B1 VH with M34D
# VL: B1 VL
# notes: as for B2
# B7: BAP-143-00-01 (antibody, V domains shown)
# VH: B1 VH
# VL: B1 VL with L33E
# notes: as for B2
# B8: BAP-143-06-33-03 (antibody, V domains shown)
# VH: QVQLVQSGAEVKKPGASVKVSCKASGFTFSSYNMNWVRQARGQRLEWIGYISSSSSTIYYADSVKGRFTISRDNSKNTLYLQMNSLRAEDTAVYYCARAYYYGMDKWGQGTLVTVSS
# VL: B1 VL with F94E
# notes: as for B2
# B9: BAP-143-06-24-16 (antibody, V domains shown)
# VH: EVQLVQSGAEVKKPGATVKISCKVSGFTFSSYNMNWIRQSPSRGLEWLGYISSSSSTIYYADSVKGRFTISRDNSKNTLYLQMNSLRAEDTAVYYCARAYYYGDDVWGQGTLVTVSS
# VL: B1 VL with R24H
# notes: as for B2
# B10: BAP-143-07-03-12 (antibody, V domains shown)
# VH: B1 VH with V106K
# VL: B1 VL with L33E
# notes: as for B2
# B11: BAP-143-06-33-16 (antibody, V domains shown)
# VH: B9 VH
# VL: B1 VL with L33E
# notes: as for B2
# Molecular target: T1, human Nectin-4 on cells
# Assay: FACS, T47D cells
row,Ratio (pH 7.4/6.0) of EC50,Binder
1,0.9,B1
2,2.4,B2
3,2.6,B3
4,2.9,B4
5,3.6,B5
6,2.1,B6
7,6.7,B7

# Molecular target: T1, human Nectin-4 on cells
# Assay: FACS, T47D cells
# Remark: another data set of the same source
row,Ratio (pH 7.4/6.0) of EC50,Binder
1,1.2,B1
2,14.8,B8
3,2.9,B9
4,4.5,B10
5,3.4,B11
6,6.2,B7

# Molecular target: T2, huNectin4-His
# Assay: SPR, huNectin4-His immobilized, pH 6.5
# Description: Binding kinetics of anti-Nectin4 antibodies were measured by surface plasmon resonance using a SPR2/4 instrument (Sierra Sensors, Hamburg, Germany) and flat amine sensor chips. The SPR sensor contained four flow cells (FC1-FC4), each of which was addressed individually or in groups. huNectin4-His was immobilized in FC2, and cynoNectin4-mFc in FC4. No protein was immobilized in FC1 and FC3 which were used as control surfaces for FC2 and FC4, respectively.
# All injections were done at a flow rate of 25 μL/min at 25° C. The sensor surface was activated with 1-ethyl-3-(3-dimethylaminopropyl)-carbodiimide (EDC) and N-hydroxysuccinimide (NHS) (200 mM/50 mM) for 480 seconds. HuNectin4-His (2 μg/mL in 10 mM NaAc, pH4.5) was injected for 480s and the surface was inactivated by injecting 1M ethanolamine-HCl for 480s. CynoNectin4 was immobilized using the same conditions as described for huNectin4-His, except that the cynoNectin4 was diluted into 10 mM NaAc buffer having pH 5.0. The control surface was activated and deactivated using the same conditions, but without injecting protein. PBST buffer (PBS pH 7.4 with 0.05% TWEEN20™) was used as running buffer for the surface preparation. The running solution was switched to PBST with 30 mM sodium bicarbonate with the pH adjusted as indicated in the figures before the analyte injections. The instrument was equilibrated with the running solution for one hour before the first analyte injection.
# The off-rate was measured for 360s. The chip surface was regenerated after each cycle of interaction analysis by injecting 6 μL of 10 mM glycine (pH 2.0). Flow cells 1 and 3 without immobilized protein were used as control surfaces for reference subtraction.
Kd,koff,kon,Binder
0.685 nM,–,–,B1
6.23 nM,0.00453 s⁻¹,726000 M⁻¹ s⁻¹,B2
0.22 nM,0.000726 s⁻¹,3.3e+06 M⁻¹ s⁻¹,B3
2.97 nM,0.00229 s⁻¹,771000 M⁻¹ s⁻¹,B5
1.5 nM,0.00439 s⁻¹,2.94e+06 M⁻¹ s⁻¹,B6
5.15 nM,0.00245 s⁻¹,476000 M⁻¹ s⁻¹,B7

# Molecular target: T3, recombinant human Nectin4 antigen
# Assay: pH range ELISA, 30 ng/mL, pH of 50% binding activity
# Description: 1) Coat ELISA plates with 100 μL of 1 μg/mL recombinant human Nectin4 antigen in carbonate-bicarbonate coating buffer [0462] 2) Cover plates with sealing film and incubate overnight at 4° C. […] 3) Decant plates and tap out residual liquid on a stack of paper towels [0464] 4) Wash wells twice by dispensing 200 μL of various pH incubation buffer to the wells and completely aspirate the contents [0465] 5) Add 200 μL of various pH incubation buffers (pH5.5, 6.0, 6.2, 6.5, 6.7, 7.0 and 7.4) to the wells. Cover with sealing film and place the plate onto a plate shaker (set to 200 rpm) for 60 minutes at room temperature [0466] 6) Decant plates and tap out residual liquid on a stack of paper towels [0467] 7) Serially dilute test substances in various pH incubation buffers (pH5.5, 6.0, 6.2, 6.5, 6.7, 7.0 and 7.4) to 30 ng/mL [0468] 8) Add 100 μL/well of diluted test substances to the plates [0469] 9) Cover with sealing film and place the plates onto a plate shaker (set to 200 rpm) for 60 minutes at room temperature. [0470] 10) Decant plates and tap out residual liquid on a stack of paper towels. […] 12) Dilute the HRP secondary antibody at 1:2500 in various pH incubation buffers (pH5.5, 6.0, 6.2, 6.5, 6.7, 7.0 and 7.4) [0473] 13) Add 100 μL HRP secondary antibody diluted in various pH incubation buffers (pH5.5, 6.0, 6.2, 6.5, 6.7, 7.0 and 7.4) to each well. […] 14) Cover with sealing film and place the plates onto a plate shaker (set to 200 rpm) for 60 minutes at room temperature. [0475] 15) Decant plates and tap out residual liquid on a stack of paper towels. […] 16) Wash wells three times by dispensing 200 μL of various pH wash buffer (pH5.5, 6.0, 6.2, 6.5, 6.7, 7.0 and 7.4) to the wells and completely aspirating the contents [0477] 17) Dispense 50 μL per well of the TMB substrate solution into all wells of plates.
row,pH inflection point,Binder
1,6.99 pH,B2
2,6.77 pH,B3
3,6.7 pH,B4
4,6.71 pH,B5
5,6.81 pH,B6
6,6.59 pH,B7
